Paper PMC11686214, “Integrative determination of atomic structure of mutant huntingtin exon 1 fibrils implicated in Huntington disease” (Nature Communications, 2024)
Square brackets hold non-standard residues; d marks the D form. Ends that are not written are not given here.

Target: the molecule itself
Test: solid-state (MAS) NMR of fibrils; synthetic peptide aggregated at 1 mg/mL in PBS pH 7.4 at 37 °C, harvested by centrifugation after 2-3 weeks; 1H-15N HETCOR, 13 kHz MAS, 275 K

B1: K2Q11pGQ11K2 polyQ peptide (peptide)
peptide: KKQQQQQQQQQQQ[dP]GQQQQQQQQQQQKK
modifications: also: two sequential Gln uniformly 13C,15N labelled, positions not given here
notes: written out from the printed formula K2Q11pGQ11K2; p is D-proline; also called polyQ model peptide; source: synthetic peptide (Yale University peptide facility)
  binding result: binds
